In US20190322724A1 (RESEARCH FOUNDATION FOR THE STATE UNIVERSITY OF NEW YORK, published 2019):

Molecular target: T1, endogenous secreted MMP-2 in conditioned media of SYF and SYF+c-Src mouse embryonic fibroblast cells (mouse (endogenous protein of mouse …, UniProt P33434 30-662, limits assumed))
T1 construct: also called endogenous secreted MMP-2 in SYF CM
Test: Ni-NTA pulldown from SYF CM, immunoblot
Description: Pulldown and co-pulldown experiments were performed from CM and immunoblots were followed. […] Data represent three independent experiments.
Equal amounts of isolated cell extract proteins were incubated with HisPur Ni-NTA Resin (ThermoScientific) for 2 hours at 4° C. Immunopellets were washed 4 times with fresh lysis buffer (20 mM HEPES pH 7.0, 100 mM NaCl, 1 mM MgCl2, 0.1% NP40, protease inhibitor cocktail (Roche) and PhosSTOP (Roche)). […] Pulldowns were also performed using conditioned media concentrated ˜10× using Amicon Ultra 10K centrifugal filters (Millipore) according to the manufacturer's protocol. HiPur Ni-NTA Resin was used to pulldown His6-tagged TIMP-2 from concentrated conditioned media. Briefly, HisPur Ni-NTA Resin was washed 3 times by vortexing resin with 0.1% NP40 lysis buffer and pipetting off supernatant. Concentrated conditioned media was combined with washed HisPur Ni-NTA Resin, and placed on rotator at 4° C. for 1 hour. Wash step was repeated 4 times with 1% NP40 buffer+150 mM NaCl to reduce non-specific binding of proteins to resin. 5× protein loading buffer was added to resin and boiled for 5 minutes.

T1 sequence (P33434 30-662 limits assumed): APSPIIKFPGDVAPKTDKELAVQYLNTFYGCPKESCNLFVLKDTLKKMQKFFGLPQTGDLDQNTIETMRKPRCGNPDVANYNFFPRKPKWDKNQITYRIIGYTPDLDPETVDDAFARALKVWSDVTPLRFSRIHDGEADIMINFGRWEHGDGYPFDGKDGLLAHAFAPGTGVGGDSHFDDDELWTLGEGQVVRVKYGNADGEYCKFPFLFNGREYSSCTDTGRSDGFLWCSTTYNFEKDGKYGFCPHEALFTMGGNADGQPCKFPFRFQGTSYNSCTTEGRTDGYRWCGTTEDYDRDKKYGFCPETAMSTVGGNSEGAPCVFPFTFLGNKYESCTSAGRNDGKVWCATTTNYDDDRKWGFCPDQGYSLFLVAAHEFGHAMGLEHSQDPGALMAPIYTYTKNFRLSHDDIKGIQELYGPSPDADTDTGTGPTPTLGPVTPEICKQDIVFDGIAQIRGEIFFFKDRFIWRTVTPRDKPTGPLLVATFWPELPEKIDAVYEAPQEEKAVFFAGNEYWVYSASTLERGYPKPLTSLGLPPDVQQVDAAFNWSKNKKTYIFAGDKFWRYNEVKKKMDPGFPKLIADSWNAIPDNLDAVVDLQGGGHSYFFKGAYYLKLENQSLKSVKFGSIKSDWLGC

B1: TIMP-2 Y62F/Y90F/Y165F-His6 (other)
chain: CSCSPVHPQQAFCNADVVIRAKAVSEKEVDSGNDIFGNPIKRIQYEIKQIKMFKGPEKDIEFIFTAPSSAVCGVSLDVGGKKEYLIAGKAEGDGKMHITLCDFIVPWDTLSTTQKKSLNHRYQMGCECKITRCPMIPCFISSPDECLWMDWVTEKNINGHQAKFFACIKRSDGSCAWYRGAAPPKQEFLDIEDPHHHHHH
notes: also called TF; triple F mutant
binding result: no binding
